Values joined by “and” are separate entries in the source; they are usually repeats but may differ in a detail not shown here. Identical values can stand only once.
T1: clathrin N-terminal domain (TD) of the clathrin heavy chain, bovine, residues 1-363 (bovine, UniProt P49951 1-363)
T1 sequence (looked up): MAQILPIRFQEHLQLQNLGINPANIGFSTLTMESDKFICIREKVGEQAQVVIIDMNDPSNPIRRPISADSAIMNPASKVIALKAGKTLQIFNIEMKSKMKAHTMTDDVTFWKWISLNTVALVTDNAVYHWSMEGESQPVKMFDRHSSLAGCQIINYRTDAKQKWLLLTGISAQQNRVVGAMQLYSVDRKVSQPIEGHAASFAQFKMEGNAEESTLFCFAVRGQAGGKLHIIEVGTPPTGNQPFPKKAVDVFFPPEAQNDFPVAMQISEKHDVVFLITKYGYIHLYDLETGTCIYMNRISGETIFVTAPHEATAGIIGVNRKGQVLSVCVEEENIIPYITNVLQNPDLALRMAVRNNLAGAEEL


Tests used:
[1] = target: amphiphysin clathrin-box peptide clathrin-box peptide (UniProt P49418); details: cited from earlier work
Chain of amphiphysin clathrin-box peptide clathrin-box peptide (P49418 whole entry, looked up, the tested form may be a part): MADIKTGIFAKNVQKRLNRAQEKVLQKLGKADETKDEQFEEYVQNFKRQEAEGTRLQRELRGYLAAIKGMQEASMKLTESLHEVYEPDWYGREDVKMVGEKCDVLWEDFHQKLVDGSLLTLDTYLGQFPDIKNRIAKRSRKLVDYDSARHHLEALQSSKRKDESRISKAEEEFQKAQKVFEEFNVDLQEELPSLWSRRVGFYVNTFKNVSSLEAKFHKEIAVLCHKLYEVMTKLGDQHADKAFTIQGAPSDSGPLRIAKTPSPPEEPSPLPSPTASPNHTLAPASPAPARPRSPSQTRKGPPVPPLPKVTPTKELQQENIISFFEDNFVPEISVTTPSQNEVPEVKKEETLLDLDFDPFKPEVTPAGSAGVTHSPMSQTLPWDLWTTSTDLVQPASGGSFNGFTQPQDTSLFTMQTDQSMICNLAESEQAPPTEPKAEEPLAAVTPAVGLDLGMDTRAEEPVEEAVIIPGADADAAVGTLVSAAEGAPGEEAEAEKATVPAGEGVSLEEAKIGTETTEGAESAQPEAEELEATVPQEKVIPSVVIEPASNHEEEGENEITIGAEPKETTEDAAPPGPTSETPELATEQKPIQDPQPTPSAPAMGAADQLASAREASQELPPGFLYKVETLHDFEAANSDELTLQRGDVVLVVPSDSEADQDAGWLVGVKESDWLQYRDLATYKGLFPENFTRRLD

[2] = target: T1, clathrin N-terminal domain (TD) of the …; experiment: ITC
[3] = target: T1, clathrin N-terminal domain (TD) of the …; experiment: NMR titration

Molecule | Kd [1] [µM] | Kd [2] | dH [2] [kcal/mol] | stoichiometry N [2] | Kd [3] [µM] | stoichiometry N [3]
clathrin heavy chain N-terminal domain (from UniProt P49951) | 22 |  |  |  |  | 
CQVIPSQGDLLGDLLNLDLGPPVNVPQ [AP2 peptide (clathrin-box peptide from the hinge of the AP2 β2 subunit, residues 619-644)] |  | 420 µM and 474 µM | -2.8 | 3.01 and 3 | 867 ± 246 | 2.6 ± 0.4
CPQAVASSSASADLLAGFGGSFMAPS [AP180 peptide 2 (residues 655-679 of mouse AP180)] |  |  |  |  | 899 ± 529 | 3.7 ± 0.6
CSPAKAESSGVIDLFGDAFGSGASETQ [AP180 peptide 1 (residues 627-652 of mouse AP180)] |  |  |  |  | 829 ± 221 | 3.9 ± 0.3
